In US20200048631:

Experiments:
[1] = system: tTA (tetracycline transactivator, TetR-VP16); assay: cell_activity; settings: 0.5 ug tTA plasmid, no Gal4
[2] = system: Gal4-VP16; assay: cell_activity; settings: 0.5 ug Gal4 plasmid, no tTA
[3] = 0.1 without TF, 16.0 with both TFs at 0.5 ug

H1 hybrid promoter pT2U2T2U2 (TetO and UAS, CMV minimal promoter)
activity ([1]; <0.1 without TF, HEK293FT, synergy with Gal4): 3.1 % ON cells | activity ([2]; <0.1 without TF, HEK293FT, synergy with tTA): 9.2 % ON cells

H2 hybrid promoter pT2U3 (TetO and UAS, CMV minimal promoter)
activity [1, 3]: 0.8 % ON cells | activity [2, 3]: 4 % ON cells
